Experimental data: the nanobody polyreactivity screen of Harvey et al. (2022)

Assay: yeast display, Sf9 membrane polyspecificity reagent, FACS + sequencing; frameworks hold sequencing errors
How it was run: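 A nanobody's polyreactivity label depends on the gate it was sorted from. Yeast display cells were stained with 10% biotinylated, detergent-solubilized Sf9 membrane reagent for 1 hour at 4 °C, enriched on streptavidin microbeads and sorted by FACS. The low and high (top ~1%) gates were set on anti-HA fluorescence for expression and streptavidin fluorescence for reagent binding.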

Sequence	polyreactivity (PSR sort gate)
QVHLVESGGGLVQAGGSLRLSCAASGFTFYAMGWYRQAPGKERELVAAIDQGGDRTYYADSVKGRFTISRDNAKNTVYFQMNSLKPEDTAVYYCAARYRRTWRLIYWGQGTQVTVSS	high polyreactivity
QVQLHESGGGMVQAGGSLRLSCAASGTISYAGPMGWYRQAPGKEREFVAGIGVGSNTNYADSVKGRYTIIRDNAKNTVYLKMNSLKPEDTAVYYCGVGVYAQLGRPYWGQGTQVTVSS	low polyreactivity
QVQLVESGGGLVQAGGSLRLSCAASGRISVVNAMGWYRQAPGQERELVAAIRRASTNYADSVKGRFTISRDNAKKTVYLQMNSLKPEDTAVYYCAARVYGINIFEYWGQATQVTVSS	high polyreactivity
QVQLVESGGGIVQVGRSLPISSAAYGRTFVYYAMGWYRQAPGKERELVARISRSGGRTFYADSVKGRFTISRDNAKNTVYLVLYSQKPEDTAVYYCNSSDVHVTTYGYWGQGTQVSVSS	low polyreactivity
QVQLVESGGGLVQAGGSLRLSCAASGGTLYRYAMGWYRQAPGKERELVAGISSSGGRTYNADSVKGRFTISRDNAKNTVYLQMNSLIPEDTAVYYCAKYWVSSYDYWGQGTQVTVSS	high polyreactivity
QVQLVESGGGLVQAGGSLRLSCAASGSIFRWYAIGWYRQAPGKERELVATICWSTGTTYYADSVKGRFTISRDNAKNTVYLQMNSLKPEDTAVYYCAKVSTYRSSYSLKSGYGNDYWGQGTQVTVSS	low polyreactivity
QDQLVDSGGGLVQAGGSLRLSCAASGFTLAYNTMGWYRQAPGKERELVASITSSGSSTYYADSEKGRFTITRDNGKYNVYLEMNSLKPEDTAVYYFNKVRPRKFWDYYYWGQGTQVTVSS	high polyreactivity
QVQLVESGGGLVQAGGSLRLSCAASGRILPLYAMGWYRQAPGKERELVARIDSGGSTNYADSVKGRFTISRDNAKNTVYLQMNSLKPEDTAVYYCAAVVTAQAYAYFTYGYDYWGQGTQVTVSS	low polyreactivity
QVQLVESGGGLDQAGGSLRLTCAPYGLISDRNAIGWYRQAPGKERDLVASIRSGGSTYYADSVKGRFTFSRDNAKNTVYLEMNSLKPEDTAVYYCAAGGGHTPVSYYLVPYMDYWGQGTQVTVAS	low polyreactivity
QVQLVESGGGLVQAGCSLRISCAASGFTFGKYAMGLYRQAPGNERELVAAITQCGGSTYYADSVKGRFTISRDNAKNTVYLQMNSLKPEYTAVYYCAADRRRQYRPGGYWGQGTQVTVSS	high polyreactivity
QVQLVESGGGLVQAGGSLRLSCAASGFIFNHYAMGWYRQAPGKEREFVAAISWSGGSTYYADSVKGRFTISRDNAKNTVYLQMNSLKPEDTAVYYCAASYNCLWHGDYDYWGQGTQVTVSS	low polyreactivity
QVQLVESGGGLVQAGGRLRLSCAASGFTFNVNALGGYRPAPGKERELVATITWSDGSTRYADSVKGRFTISRDNAKNTVYLQMNSLKPEDTAVYYCATRWSYPYSYRYYYWGQGTQVTVSS	low polyreactivity
QVQLVESGGGLVQAGGSLRLSSAASGFTFSDNAMGWYRQAPGKERELVAAISRSGGNTHYADSVKGRFTISRDNAKNTVYLQMNSLKPEDTAVYYCAKYLYKSRIRSTFDYWGQGTQVTVSS	high polyreactivity
QVQHVESGGGLDQAGGSLRLSCAASGSIFNGYAMGWYRQAPGKERELVADIRSGGSTYYADSVKGRFTISRDNAKNTVYLQMNSLKPEDTAVYYCAGDTITDGYDYWGQGTQVTVSS	low polyreactivity
QVQLVESGGGLVQAGGSLRLSCAASGSTSGRNVMGWYIQAPGKERELVAAISSRGGSTYYADSVKGRFTISRDNAKNTVYLQMNSLKPEDTAVYYCAARYGAYSGYDYWGQGTQVTVSS	high polyreactivity
QVQLVESGGGLVQAGGSLRLSCAASGRILGDNVMGWYRQAPGKERELVAAISSGSGSTYYADSVKGRFTISRDNAKNTVYLQMNSLKPEDTAVYYCAAGPYIYPRYDYWGQGTQVTVSS	low polyreactivity
QVQLVESGGGLVQAGGSLRLSCAASGGIFTPYAMGWYRQAPGKERELVAAISRSGGSTYYADSVKGRFTISRDNAKNTVYLQMNSLKPEDTAVYYCNALFRALKAFSQYNYWGQGTQVTVSS	high polyreactivity
QVQLVESGGGLVQAGGSLRLSCAASGSIFGFYAMGWYRQAPGKERELVAAISSDGGSTYYADSVKGRFTISRDNAKNTVYLQMNSLKPEDTAVYYCAAAHGSIYDSTYYEYYYWGQGTQVTVSS	low polyreactivity
QVQLQESGGGLVQAGGSLRLSCAASGYISQSSVMGWYRQAPGKEREFVASISYGATTYYADSVKGRFTISRDNAKNTVYLQTNSPKPEDTAVYYCAVLVKRGFSHRYWGQGTQVTVSS	high polyreactivity
QVQLVESGVGLVQAGGSLRLSCAASGRIFHLYAMGWYRQAPGKERELVAAITFSGGSTYYADSVKGRFTISRDNAMNTVYLQMNSLKPEDTAVYYFAKRSFYWFSSRLPFKYDYWGQGTQVTVSS	low polyreactivity
QVQLVESGGGLVQAGGSLRLSCSASGFTFYRNAMGWYRQAPGKERELVASISRSGGSTYYADSVKGRFTISRDNAKNTVYLQMNSLKPEDTAVYYCAADLCWIYPHKYYYWGQGTQVTVSS	high polyreactivity
QVQLVESGGGLVPAGGSLRLSCAASGSTFTQNARGWYRQAPGKERELVAAISWSGARTYYADSVKGRFTISPDNANNTVYLQMNSLKPEDTAVYYCNNYARKRGTTNDYWGQGTQVTVSS	high polyreactivity

Sequence	polyreactivity (PSR sort gate)
QVQLQESGGGLVQAGGSLRLSCAASGSIFHLHIMSWYRHAPGKERESVAAISYGTSTYYADSVKCRFTICRDNAKNTVYLQINIPKPDDTAVYYCAALFLVSKHHHYWGEGTQVTVSS	low polyreactivity
QVQLVESGGGLVQAGGSLRLSCAASGSIFGRYAMGWYRQAPGKERELVAAITRSGVSTYYADSVKGRFTISGDYAKNTVYLQMNSLKPEETAVYYCNAYYRIRSSPYGYYYWGEGTQVTVSS	high polyreactivity
QVQIVESGGGLFQAGGSLRISCAASGSTIRANPMGWYRQAPGKERELVAAITKNGGSTYYADSVKGRYTISRDNAKYTVYLPMNTLIPEDNGVYYCAARRSSRRPPYYYWGQGTQVTVSS	high polyreactivity
QVQLVESGGGLVQAGGSLRLSCAASGIIFFLYAMGWNRQAPGKERELVAAISSGGSTYYADSVKGRFTISRDNAKYTVYLQMNSLKPEDTAVYYFIARYWPFRYYYWGQGTQVTVSS	high polyreactivity
QVQLVESGGGLVQAGGSLRLSCAASGIILSDNAMGWYRQAPGKEREFVAAITGSCGSTYYADSVKGRFTISRDYAKKTDDLQMNSLKPEDTAVYYCSADGPFGYYYGHYGYWGQVTQVTVSS	low polyreactivity
QVQLVESGGGVVQAGGRLGLSCAASGSTFSQNPMGWYRQAPGKERELVASISSGGSTHYADSVKGRFTISRDNAKNTVYLQMNSLKPEDTAVYYCTTDLPNYVPFIVVEAYNYWGQGTQVTVSS	low polyreactivity
QVQLVESGGGFVQAGGSLRLSCAASGGTFYRYAMGWYRQAPGKERELVAVISRGLRTNYADSVKGRFTISRDNAKNTVYFQMNSLQPEDTAVYYCAAHQYRVYRHGFDYWGQGTQVTVSS	high polyreactivity
QVQLVESGGGLVQAGGSLRLSCAASGSIFPGYAMGWYRQAPGKERELVATIRWSSGSRTNYADSVKGRFTISRDNAKNTVYLQMNSLKPEDTAVYYCAAGSRRYKYDYWGQGTQVTVSS	high polyreactivity
QVQLVESGGGLVQAGGSLRLSCAASGLIFWLNAMGWYRQAPGKERELVAAISSSGGRTYYADSVKGRFTISRDNAKNTVYLQMNSLKPEDTAVYYCNRGQQGRGWWGYDYWGHGTQVTVSS	high polyreactivity
QVQLVESGGGLVQAGGNLRLSCAASGIILYRYAMGWYRQAHGKERELVAAISRRGGSTYYADSVKGRFTISRDNAKNSVYLQMNSLKPEDTAVYYCAAYYRGYAYYYWGQGTQVTVSS	high polyreactivity
QVQLVESGGGLVQAGASLRLSCAASGSIFIYYAMGWYRQAPGKERELVAAISGGGRTNYADSVKGRFTISRDNAKNTVYLQMNSLKPEDTAVYYCAADPVYWYSTMDFWGQGTQVTVSS	low polyreactivity
QVQIVESGGGLVQAGGSLRLSCSASGRIFVGNAMGWYRQAPGKERELVAAISQRGGSTYYADSVKGRFTISRDYAKNTVYFQMNSRKQDVTAVYSCNAACRRAATSIWSWYDHWGQGTQETVSS	low polyreactivity
QVQLVESGGGLVQAGGSLRLSCAASGRTFRKYAMGWYRQAPGKERELVAAISWSGGSTYYANSVKGRFTISRDNAKNTVYLQMNSLKPEDTAVYYCAAVPVHTGSLYWGFTTGYDYWGQGTKVTVSS	low polyreactivity
QVQLVESGGGLDQAGVSLRLSCAATGRIFYHYAMGWYRHEPGKERELVASITTSGDSTYYADSVKGRFTISRDTAKNTVYLQMNSLKPEDTAVYYCAARSYRGSRYDYWGQGTQVTVSS	high polyreactivity
QVQLVESGGGLVQAGGSLRLSCAASGLTFWWYAMGWYRQAPGKQRELVAGITGGGSTSYADSVKGRFTISRDNAKNTVYLQMNSLKPEDTAVYYCAASPYNGQRTWYKYFFLGDYWGQGTQVTVSS	high polyreactivity
QVQLVESGGGLVQAGGSLRLSCAASGGTFFYNAMGRYRQAPGKERELVAAINGGTSTNYADSVKGRFTISRDNAKNTVYLQMNSLKPEDTAVYYCAAVYRRLGRYDWYDYWGQGTQVTVSS	low polyreactivity
QVQLVESGGGLVQAGGSLRLSCAASGSIFAINAMGWYRQAPGKERELVAAIRSGGRTYSADSEKGRFTISRDNAKITVYLQMNSLKPEDTAVYYCTDGGKWIGSDYWGQGTQVTVSS	high polyreactivity
QVQLVESGGGLVQAGGSLRLSCAASGFIFRYYTMGWYRQAPGKERELVASISRRGGSTYYADSVKGRFTISRDNAKNIVYVQMNSLKEVDTAVYYCNADRRLGDGYWGQGTQVTVSS	high polyreactivity
QVQLVESGGGLVQAGGSLRLSCAASGFTFPGYAMGWYRQAPGKERELVAAISSSGGSTYYADSVKGRFTISRDNAKNTVYLQMNSLKPEDTAVYYCAARHGQSWQWLEYDYWGQGTQVTVSS	low polyreactivity
QVQLVESGGGLVQAGGSLRLSCAASGFTFPFYTMGWYRQAPGKERELVAAITRSGASTFYADSVKGRFTISRDNAKNTVYLQMNSLKPEDTAVYYCAARRGYAPYEYWGQGTQVNVSS	high polyreactivity
QVQLVESGGGLVQEGGSLRLSCAASGRIYARNAMGWYRQAPGKERDLVAAIRNSDGSTYYADSVNGRFTISRDNAKNSVYLQMNSLKPEDTAVYYCNTVPYPAYLARMDYWGQGTQVTVSS	high polyreactivity
